# From the domain aggregation screens of Martell et al. (2025)
# Test: soluble fraction after stress (log2 fold change); higher = more stays soluble; pooled small domains, quantitative proteomics
# Conditions: stress: 50 degC
# How it was run: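 The stress applied to every library was 50°C. These custom libraries of small protein domains were pooled and measured at high throughput with quantitative proteomics as the read-out. Aggregation propensity is expressed as the base-two logarithm of the fold change in how much of each protein remains soluble. The higher the value, the more of that protein stays in solution.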
row,Sequence,soluble fraction (log2)
1,HMGNLEENFRLKAGTEDGAWEFIRYHLGKLPVVNESNGTAIVNAERQAFLLFDRMVAFHIQRGVMVPLSAP,0.0891
2,HMGNLVDGINKKLTHVRDSLPEGYTLDEFKSAFQQQYPAAYDAYEGDKGKQFDKWLGNVIQSLPKK,0.161
3,HMGNNSIDIKDVIYNLVEISQLQAFDIVKHFKTWENLVNKPDELDTVIDGDSDIVDRIKYKIKSLS,0.109
4,HMGNQALSSVLSDIAGIGPVKTKELLRVYPDLDSLRQAPVEEVAKVKGIGRQLAQKIHDHFSSR,0.189
5,HMGNRWENLISNKMIDDVDEELLRKYIAQAHDAGRIAISYTDRKTVLNQLELTDGDRLLNAGKVLFSD,-0.094
6,HMGNTTEVLVATQDVKANTKIKESMFTTERVDTASLPDNYLSADSAKDVVGYYTYIGFTKGSVISKSNIAT,0.0925
7,HMGNVRSWKGWTSAGGTRVQMRQGDSINSMARRYGVPIQAIVAVNGIDDPAKVQPGQSVIIPTYVY,0.0448
8,HMGNWEQQLRSWADGELATGKQDILTTAVPAFERALIETALSHTNGRKRDAAELLGWGRNTLTRKLKELGM,-0.371
9,HMGNYEEAILAFEAAIKIDPKNADAYRKLAEAYEKTGDEDAALRTLETGAEATGDRELADLAEKKRQELDA,0.169
10,HMGPASTGAHQLGLKPGDEVTHRAWGEGVVTSTTGEGDRAEAVVDFDAVGEKRLLLAWAPLER,0.00864
11,HMGPDTVDRTRRFKWVDNEVVVNFGKNAGRTLRDLAENDPGFLRWIVRSDFSDEVRTIANDALMGKFPTRK,0.00109
12,HMGPEAFPVPYVVDIELDRAIYVIEQSGFIVGQKLEANDNNVPRGFVISQNPPAGTKLGPESIVDLVVSS,-0.519
13,HMGPLDIAQLKSDFLGGDAQLARRAWDQLATKAGDEGRDFLISSLGSSDPQIRNRVALGIHES,0.0489
14,HMGPLTMGQRIVRLRTQAGLSQDALAEQLGVSRQSVSKWETDGSVPDLDRLVKLSKVFGVTLDELVKG,-0.024
15,HMGPPAVGAKLQVLRQARKLSLDELSRRAGVSKSMLSQVERNLANPTVAVLWRLATALGVGLADFLSP,-1.39
16,HMGPRVSAGPGRHRVQPGDTLDDIAARYRVSSRDLMLVNGLRNANHVEAGQTLKLPSNAVIA,0.28
17,HMGPSLIRIASNPVAEVFIDGTRVGTTPFEMPADGTLKTVRLTAKDHDDLVVPLRSMKSMEIMLTLRRI,-0.589
18,HMGPTLTDEEEVVLNLLEKNHPVLLSELKENAGLSNKKWDKAIKGLSAHKLAKVTKTDDGLFVHLS,0.0395
19,HMGPTPTSAQLTEAKRLRTKLDDLNPELAERLWSEHREPYTETQYQTLIEKLAAEVQSAEGEIGR,0.182
20,HMGPVRRDLEINGRMVPLTIREHARATRITLRIEPGGQALRLTIPPGLPTREVDSFLTRHHGWLMTKLAHI,-1.79
21,HMGPWTETAAKGDAVSKRMLITWLQENADAEFLAAQKLTGQATSVAKRVTKDQLVELYLSVTTAA,-0.53
22,HMGQAAHYEGVKGDGESDTDVISRVLTAAGAEAQKDDIFVVKELIAGGKYSYTAYVYDGSVWAAM,-0.266
23,HMGQAEEVRYSTFLDEVRNGRIEQVVLQGEHIIGTRKDKTVFSVFNPETDYTALIGTLSKSGVTIEGRP,0.081
24,HMGQARQSAIRELGNDPTSGKKITVRSGRYGPYVTDGEVNASLRKGDDPQTIDLDRAIELLAARREKLG,0.13
25,HMGQDGFIGLEAAKKLVLQKLGLTSAEFIKAELDAEDRKYELELIVDGIEYDFDIDAYSGAFLKQEQETV,-0.215

row,Sequence,soluble fraction (log2)
1,HMGQEEKDIFLKLINISGIGPKLALNILSGIEASELEEAVRNTNVTRLSMVPGIGQKTALRIIMELSDKLE,-0.432
2,HMGQELTMPDLKSMSRSNAEEKLKKMGLKLGAVFEENAKEPAGTVINQDPRSGSKITKGQTVDITVSLGEK,0.131
3,HMGQERAVPDVKGQSFDMAQGNISRAGLKAVVTDSVYDSYARPGTVVEQSPIPLAKIKRGGTVYLTLVA,-0.105
4,HMGQGSAFVYYEVLPKQTEYSLTRKLGLGYADLLSLNPQLARGLQAGMVLKIPRDKAGNLEVKNDLILE,-0.271
5,HMGQISLSVNAIPEKAEVILDGNSIGNTPIRKNTITPGSHMFEIEKKGYAPISYDIYVNPSKAINLDFFM,-0.63
6,HMGQKDYKTRLQEYFAKQGLKVNYEDTSHGPDHNKNFSTDVFLDGKIIGSGIGKSKKSSQQSAAKDALNIL,0.338
7,HMGQLIGKEEAKQIALSRAGVAEGDISRYESELDTDDGKTKYEISFHVGRVEYDIEINAVTGAVEKFEMDN,0.131
8,HMGQTDTIIKTTTDLYYEMSTMSDDDKLVVAQTLRDVWMAVGRWSGKLSKKQREKVAEVKRVLGE,-0.833
9,HMGQVAKPPLKELGADPVTGKPMVLKDGRFGPYVTDGEYNASLRKDDDIETIGVERAAELLQIRREKGP,-0.081
10,HMGQVGIPFSDFLAEVENGQVREVVIKGNDISGTFNDNRGFSTYAPNDPNLVEKLTKRGVVINAQPTE,0.0645
11,HMGQVSEAGELEVAADRVIAANPEAVTKYKSGNENILQFLVGQMMKETKGAANPQVAAEILRKKIV,0.254
12,HMGRELDLNQRVYDFIHDIADEVRTDEGTFSANQMMERFLFPGDLQSVPIGRLSGGERRRLYLLSVLMVKI,0.117
13,HMGRFPSLTPVVIDALTAQYREHPGWTVQLHVDNLRVVLAANQTPLPSYPTIRRYLLAQGMRRQTRP,-0.426
14,HMGRLNMRRIRDVLRLKFGQGLSERQVAASLGLSKTSVGTYLHRARQAGLTWPLPQGLDDDGLELLLFP,-1.29
15,HMGRMTRKDRALATDLYGRIVGNVDDFHEGRIDYETFSERQRGLWTTLDAAGPEVKRAVLADIRERL,-0.187
16,HMGRWQPSTSAKQHGESALLLERLLHLERLTVSEAFHVLTINHRLNLSLPEYRSLLAVVQLPK,-1.57
17,HMGRYDWIEQIDDPVLAERLKHLTEDDLELLTRYVFEDATQKELASQYGIGQQSVSKRLKKLKSFLTK,0.00228
18,HMGSATAPDLKGLTYEQAQTKAEDAGYNIEKGEDVYDNDVEKGKVASQDPEAGAEAKEGSVITVNISK,-0.0349
19,HMGSFAADVGRMVRLGRAKRGISRRKLAADSGISERYLAQIEGGQGNPSVNVLKAIADAISVPVFELLPH,-1
20,HMGSFDDAPDQLRQSILQLLAEGPLPPSAITERLNISREDATEALQQLLDEQRIFAVNGMLQLQPG,-0.0107
21,HMGSFTDKQIKQAFGVLNDPRFKQGNYDGAVAVINKIAPGLADHPSVANALKRANEATQDIAQQTQA,0.161
22,HMGSGQIRYITENTVRVVYGTSKENEFVFQDGKPYPKDTPYHIHYTRNLEEYFMSGVEHDKNSKIILKVD,-0.803
23,HMGSGVNVTVNGKRMNLPLKDDHIIFVDIFNYIDFDLSKPKGSIVLKLNGRDAGYTDPIKDGDVIDIYWQ,0.33
24,HMGSIDYLVGSRLRQYRRLRGYSLIEFSAMLHRSKSAISKYERGEVSIDLRTLNEMARLLDIPLSGLLL,-4.56
25,HMGSIEASFEEDVRRYLARKSMTTTEISKKMRQKRPDMSRDQLMTLLANAIKRIKPIKKKIKGTLYLSLE,-1.3

row,Sequence,soluble fraction (log2)
1,HMGSIMIIVLKENAPQQAAEKLMKEIRAKGLQIDVSKGTRKTVLGLVGDTSVIDMEHVQGYDYVDKVLRV,0.0715
2,HMGSKDLPFSTFMSEIDKGNITSVDIRGNEIQGTFANGTKFRTYSPNYPNLVEKLNGKGVSITAGPV,0.215
3,HMGSKKITIYVSGEVKNPGIVTLNSDQRLASAVEKLGGVTENADMNNINLAMKLEDEMHYIIPKKGEK,0.28
4,HMGSKQVSVPDVRNLDYERASQQLREAGFVVGDVLRIRDDRAPAGTVIAQSPAAPALVPENARVSLLVSSG,0.251
5,HMGSLAVVPSLTGKTLQEAQSKAADYGLALEIEGYVASTAVDYGRIVSQSPDAGFSVKSGSSVKVSVSAG,0.117
6,HMGSLGRAIRSRREKMKVGLEELAAKTGLSESHISDIEEGRGFAPVGDILKIARALTIDPGELLK,0.361
7,HMGSLGSLLKSVRNQRGLSRQQMAQSLNIGVRAIEQIEEGERKPDLELLNRYARGLMDPSVT,-0.0584
8,HMGSLKEKIVLLEKLYQQNPSEEIKLLLINTYQLNHQYIQARKLFFTLTPEQKEKLPLASEFLIFL,-0.871
9,HMGSLNDQVMKYIDALPSAFNKRELDFLIERGVKEFALNGEYLEKAIINEYKLTADTYHRER,0.0641
10,HMGSLQPLLLAAIDALQTHIRSGLPFRVEERLAELDQFRTELQNGSVPPQRGVNRLWAFYEDEFRL,-0.798
11,HMGSLRSALDGIPGIGEQYQKRLLAQFGSVKAMRSASVEDFEAVRGIGRAKAQALYDALHAG,-0.131
12,HMGSLVVVPNLVGQNYDEVKLSTKYSDFEIVQKNTEYSEAPAGQIIKQDPEAGTKVKKHSTINVTVSK,-0.354
13,HMGSQELIQLGERIRQKRKDSHLTQETFAEKAGISVNTVSRIEGGQAAMSIEIFAKLVEILDADANELLG,-1.14
14,HMGSRAEAKEFLQTMLADGRQLATDMEEARQAHDIADRTLRRARKELNVQVYRDGNAWYWELPTPIK,-0.0501
15,HMGSREVPFSDFISKVESGSVLEVVLRGRQVEGLTDANERFQTQIPNYPALFEILERNQVRTRVEPT,0.0852
16,HMGSTATVIASRLNMRASASTTGALLTKIPNGATVTVLGTTGAWSHIRYGSYTGYVMSQYLRING,-0.203
17,HMGSTVRIVVPAADIPAYKDIQPSDLEYREVPKDEISEDAVTDPQEVINKYSTSPLYAGWPINKNIIET,0.0298
18,HMGSYANAWQLAEHAAKDMLGEVIYLLDGKEVHAGILETMSAESIKTASAENVDGKVVIRLVSK,-0.0617
19,HMGSYIGEAKAKEIALSHAGVSASQATFVRSQFEYDDGRAVYDVDFWSGNKEYDYEIDAKSGTIVSYDFD,-0.398
20,HMGSYVVQLGAFAIRANAEKLAREVDGSIATSGRFSLVRVGPFTSRGQAEQALAKLRARGYSDALIHSL,-0.224
21,HMGTDFRPVFQYVDELVRAGEFTNLKGMIYFTDGRGIFPEKKPDYDAAFVFLDDGYDPPDVPVWAIKLVL,-0.161
22,HMGTGSSAERITMLNSILERQIQAMEIQGNPDAPIVNIQKIYTTLQRIVETAGLKDVDQFFMNPLQGQKEM,-0.253
23,HMGTIRAPMPGTILKINVVDGDSVTKGDVLLILESMKMENSITSPKTGSVTSVYVSEGDPVQHGETLIDL,-0.147
24,HMGTISKRINPSGTTVYRAVIRIRKNGYPNFTESRTFSKKSMAAEWVKRREAEIELNPDILFG,-2.13
25,HMGTLSLLVQKLMAVGLEGAKASEIVERFDRERIERQINALPSRKIKSSRTGFLIRAIELDIPVE,-2.09
